US20140356384A1 (COLE POLYTECHNIQUE F D RALE DE LAUSANNE EPFL, published 2014)
Values belong to the binder of their own block, whether it stands above or below them.

Legend:
[1] = biological target: T1, mouse glycophorin-A (GYPA) on the erythrocyte membrane (mouse, UniProt P14220 1-168); assay: equilibrium binding to mouse erythrocytes by flow cytometry, one-site binding fit
[2] = biological target: T1, mouse glycophorin-A (GYPA) on the …; assay: flow cytometry of mouse erythrocytes incubated with the OVA conjugate, OVA detected on the cell surface

Kd [1]: 6.2 nM
B1: ERY1-OVA (ERY1 peptide chemically conjugated to ovalbumin through SMCC) (other)
peptide: WMVLPWLPGTLDGGSGCRG
chain: GSIGAASMEFCFDVFKELKVHHANENIFYCPIAIMSALAMVYLGAKDSTRTQINKVVRFDKLPGFGDSIEAQCGTSVNVHSSLRDILNQITKPNDVYSFSLASRLYAEERYPILPEYLQCVKELYRGGLEPINFQTAADQARELINSWVESQTNGIIRNVLQPSSVDSQTAMVLVNAIVFKGLWEKAFKDEDTQAMPFRVTEQESKPVQMMYQIGLFRVASMASEKMKILELPFASGTMSMLVLLPDEVSGLEQLESIINFEKLTEWTSSNVMEERKIKVYLPRMKMEEKYNLTSVLMAMGITDVFSSSANLSGISSAESLKISQAVHAAHAEINEAGREVVGSAEAGVDAASVSEEFRADHPFLFCIKHIATNAVLFFGRCVSP
modifications: lysine side chains carry SMCC linked to the cysteine of the ERY1 peptide; C-terminal amide (CONH2); cysteine side chain conjugated through SMCC to lysine side chains of OVA
notes: also called ERY1-conjugated protein

binding result [2]: no binding
B2: MIS-OVA (OVA conjugated with the mismatch peptide through SMCC) (other)
peptide: PLLTVGMDLWPWGGSGCRG
chain: B1 chain
modifications: lysine side chains carry SMCC linked to the cysteine of the MIS peptide; C-terminal amide (CONH2); cysteine side chain conjugated through SMCC to lysine side chains of OVA
